For this assay, the target named is MSLN-Fc2 (Mesothelin-antibody Fc fusion protein) (human). Description: SPR.

A value given as a limit tells only on which side of the number the result lay.

As for “Muc16 SEA11 module, uncleaved (with the Siderocalin fusion partner) (domain or fragment)”, the Kd is > 10000 nM.
Substance “Muc16 SEA10 module, uncleaved (with the Siderocalin fusion partner) (domain or fragment)” returned a Kd of 899 nM.
